The values below come from doi:10.1101/2023.08.25.554789.

Assay [1] concerns the target apCC-Hex-LLIA. Description: crystal structure.
The target of assay [2] is apCC-Hex-LLIA. Description: AUC.

Usually stoichiometry N stands for a count of units in the complex or per binding partner.

For apCC-Hex-LLIA (peptide), the stoichiometry N with apCC-Hex-LLIA [1] and with apCC-Hex-LLIA [2] was 6 throughout.
